These results are taken from patent US20150329824A1 (NATIONAL CHENG KUNG UNIVERSITY, published 2015).

No end group written: not given here.

The experiment addresses T1, membrane hyaluronidase Hyal-2 on spleen cells of NOD-SCID mice (mouse (spleen cells of NOD-SCID mice), UniProt O35632 21-448).
T1 construct: whole, on cells; Endogenous protein on mouse spleen cells, detected with an antibody against Hyal-2; also called hyaluronidase-2
T1 sequence (looked up): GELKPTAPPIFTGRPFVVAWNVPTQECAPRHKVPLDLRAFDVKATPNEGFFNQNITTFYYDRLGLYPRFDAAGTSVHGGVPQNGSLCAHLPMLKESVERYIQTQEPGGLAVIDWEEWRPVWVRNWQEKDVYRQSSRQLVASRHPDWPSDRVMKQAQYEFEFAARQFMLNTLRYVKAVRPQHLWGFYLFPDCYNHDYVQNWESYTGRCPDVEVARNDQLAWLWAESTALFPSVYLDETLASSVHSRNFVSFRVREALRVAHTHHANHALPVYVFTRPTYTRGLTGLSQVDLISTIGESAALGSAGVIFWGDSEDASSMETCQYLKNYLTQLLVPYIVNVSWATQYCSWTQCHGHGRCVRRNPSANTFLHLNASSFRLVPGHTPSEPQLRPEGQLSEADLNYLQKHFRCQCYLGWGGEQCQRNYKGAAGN
As to the kind of experiment: epifluorescence and confocal microscopy of NOD-SCID spleen cells stained with TMR-Zfra1-31 and Hyal-2 antibody. The procedure: FIG. 2 includes photos showing the identification of Zfra⁺ Hyal-2⁺ spleen cells. A and B: Spleen cells of NOD-SCID mice were isolated and stained with synthesized peptide TMR-Zfra₁₋₃₁ and Hyal-2 (green fluorescence) antibody for 30 minutes on ice, and then fixed with 4% formaldehyde. Zfra bound to membrane hyaluronidase Hyal-2, as determined by epifluorescence and confocal microscopy.
In this example, spleen cells were isolated from immune deficient NOD-SCID mice, which are deficient in T and B lymphocytes and NK cells. The isolated spleen cells were stained with antibody against Hyal-2 (green) and TMR-Zfra (Zfra₁₋₃₁ labeled with red fluorescent tetramethylrodamine) for 30 minutes on ice, and then fixed with 4% formaldehyde (FIG. 2). […] These Hyal-2⁺ Zfra⁺ positive cells are interchangeably referred to as “Z cells,” for cells interacting with Zfra.

B1: TMR-Zfra1-31 (Zfra1-31 labeled with red fluorescent tetramethylrodamine) (peptide)
peptide: MSSRRSSSCKYCEQDFRAHTQKNAATPFLAN
modifications: cysteine pairing not given here; also: tetramethylrhodamine (TMR) label, position not given here
notes: Synthesized full-length Zfra peptide with a TMR label, used to stain spleen cells; also called Tetramethylrhodamine-Zfra
For the molecule B1, the binding result was “binds”.
